Reference: PMC11238991

Experiments:
[1] = molecular target: cleaved-αA (human αA-crystallin made as his-SUMO fusion, tag removed by ulp-1) (human) (UniProt P02489); assay: SEC; analytical; 2.0 mg/mL of each variant on Superose 6 Increase in 20 mM Tris-HCl pH 7.8, 150 mM NaCl, 0.25 mL/min; molar mass from protein standards, number of subunits predicted from it; three experiments
[2] = molecular target: recombinant human αA-crystallin (αA) (human) (UniProt P02489); assay: as above

Chain of recombinant human αA-crystallin (αA) (P02489 whole entry): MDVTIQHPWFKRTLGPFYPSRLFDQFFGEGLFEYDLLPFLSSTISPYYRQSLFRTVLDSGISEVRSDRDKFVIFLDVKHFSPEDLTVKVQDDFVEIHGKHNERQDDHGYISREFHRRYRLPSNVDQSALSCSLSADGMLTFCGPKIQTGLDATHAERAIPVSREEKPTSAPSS
Chain of cleaved-αA (human αA-crystallin made as his-SUMO fusion, tag removed by ulp-1) (P02489 whole entry, the tested form may be a part): as the sequence (P02489 whole entry) above

stoichiometry N [1] [subunits] | stoichiometry N [2] [subunits] | Substance
13 to 22 | – | cleaved-αA (human αA-crystallin made as his-SUMO fusion, tag removed by ulp-1) (from UniProt P02489 1-173) (natural protein)
– | 27 to 32 | recombinant human αA-crystallin (αA) (from UniProt P02489 1-173) (natural protein)
